Among the data in paper PMC11584402 are Kd values, retold here.

Broadly, the Kd is a measure of binding affinity in units of concentration.

Experiment [1] has as its target MCL1-mCherry (human), Q07820. Put plainly: probe binding assay (PBA; single-molecule pull-down with TIRF counting); mCherry-labelled anti-apoptotic protein from HEK293T crude extract immobilised on the PEG surface (anti-RFP antibody); eGFP-labelled probe in crude HEK293T extract added at 0-20 nM eGFP, 10 min; fractional occupancy of surface baits fitted to [probe]/(Kd+[probe]). As to conditions: remark: other sources report otherwise.

In experiment [2] the target is MCL1-mCherry (human), Q07820. Put plainly: probe binding assay (PBA; single-molecule pull-down with TIRF counting); mCherry-labelled anti-apoptotic protein immobilised from HEK293T crude extract on a PEG surface (biotinylated anti-RFP antibody); crude HEK293T extract with the eGFP-labelled probe diluted to a range of eGFP concentrations, 10 min; fractional occupancy of surface baits at equilibrium fitted with n fixed to 1 or with the generalized Hill …. As to conditions: remark: other sources report otherwise.
MCL1-mCherry (human), Q07820, sequence (Q07820 whole entry): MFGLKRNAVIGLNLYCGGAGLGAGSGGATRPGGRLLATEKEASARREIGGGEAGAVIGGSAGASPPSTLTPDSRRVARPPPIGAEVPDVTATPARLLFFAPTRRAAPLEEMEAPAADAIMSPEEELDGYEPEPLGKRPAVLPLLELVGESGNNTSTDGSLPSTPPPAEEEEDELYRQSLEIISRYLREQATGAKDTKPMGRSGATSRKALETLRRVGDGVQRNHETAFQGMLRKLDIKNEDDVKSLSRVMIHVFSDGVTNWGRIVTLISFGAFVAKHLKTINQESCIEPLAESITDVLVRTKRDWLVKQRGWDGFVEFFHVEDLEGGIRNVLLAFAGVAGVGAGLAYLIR

Experiment [3] has as its target BCL2-mCherry (human), P10415. The following applies: natural protein; chains chain; remark: other sources report otherwise.
Experiment [4] deals with BCLxL-mCherry (human), Q07817. Kind of experiment: probe binding assay (PBA; single-molecule pull-down with TIRF counting); mCherry-labelled anti-apoptotic protein immobilised from HEK293T crude extract on a PEG surface (biotinylated anti-RFP antibody); crude HEK293T extract with the eGFP-labelled probe diluted to a range of eGFP concentrations, 10 min; fractional occupancy of surface baits at equilibrium fitted with n fixed to 1 or with the generalized Hill …. As to conditions: remark: other sources report otherwise.
BCLxL-mCherry (human), Q07817, sequence (Q07817 whole entry): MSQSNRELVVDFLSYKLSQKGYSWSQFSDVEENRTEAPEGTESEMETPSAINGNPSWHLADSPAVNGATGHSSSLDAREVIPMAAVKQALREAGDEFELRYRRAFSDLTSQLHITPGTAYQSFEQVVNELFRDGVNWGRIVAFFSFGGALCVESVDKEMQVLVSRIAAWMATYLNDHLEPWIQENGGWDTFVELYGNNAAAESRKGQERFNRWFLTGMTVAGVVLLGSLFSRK

BCL2-mCherry (human), P10415, sequence (P10415 whole entry): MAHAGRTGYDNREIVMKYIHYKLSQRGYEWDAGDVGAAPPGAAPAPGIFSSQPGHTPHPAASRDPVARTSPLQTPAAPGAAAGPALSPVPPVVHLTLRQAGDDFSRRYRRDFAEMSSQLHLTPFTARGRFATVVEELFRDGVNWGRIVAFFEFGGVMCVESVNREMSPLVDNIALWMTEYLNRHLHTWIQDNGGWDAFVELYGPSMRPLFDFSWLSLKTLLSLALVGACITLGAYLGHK

B1: NOXA-eGFP, Q13794 1-54 (natural protein)
chain: MPGKKARKNAQPSPARAPAELEVECATQLRRFGDKLNFRQKLLNLISKLFCSGT
In the case of B1, the Kd in experiment [1] and in experiment [2] was 4.1 nM throughout.

B2: BAD-eGFP, Q92934 1-168 (natural protein)
chain: MFQIPEFEPSEQEDSSSAERGLGPSPAGDGPSGSGKHHRQAPGLLWDASHQQEQPTSSSHHGGAGAVEIRSRHSSYPAGTEDDEGMGEEPSPFRGRSRSAPPNLWAAQRYGRELRRMSDEFVDSFKKGLPRPKSAGTATQMRQSSSWTRVFQSWWDRNLGRGSSAPSQ
In the case of B2, the Kd in experiment [3] worked out at 5.5 nM; in experiment [4], 2.5 nM.
